From patent US20060041106A1

Biological target: Fas/Apo-1 receptor (human) (UniProt P25445)
Assay: cell-based or functional assay

UniProt P25445, sequence (P25445 26-335): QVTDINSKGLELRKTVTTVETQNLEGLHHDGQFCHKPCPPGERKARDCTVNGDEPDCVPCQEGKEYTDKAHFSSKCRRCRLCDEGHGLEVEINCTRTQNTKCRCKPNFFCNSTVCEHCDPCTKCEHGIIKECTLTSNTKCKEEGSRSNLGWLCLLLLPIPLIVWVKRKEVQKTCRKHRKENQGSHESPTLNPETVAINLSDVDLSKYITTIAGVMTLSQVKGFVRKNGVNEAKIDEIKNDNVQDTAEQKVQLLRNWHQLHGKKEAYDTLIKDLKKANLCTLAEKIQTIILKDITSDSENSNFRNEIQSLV

% apoptotic cells, 9D cells, CH11 1 ug/ml, 24 h (control 22.5): 90.8%
% apoptotic cells, Jurkat cells, CH11 1 ug/ml, 24 h (control 5.9): 18.1%
% apoptotic cells, Raji cells, CH11 1 ug/ml, 24 h (control 35.9): 83.7%
Substance: anti-Apo-1 monoclonal antibody, CH11
